In publication PMC2903445 (Proteins, 2010):
Like-named read-outs stand apart in the source and are kept apart here. Ends that are not written are not given here.

Assays:
Experiment in all cases: fluorescence polarisation
[1] = molecular target: Gαi1 K248E, S252L (human, UniProt P63096 26-354, K248E | S252L)
[2] = molecular target: Gαi1 E245L, L249A (human, UniProt P63096 26-354, E245L | L249A)
[3] = molecular target: T1, Gαi1 (N-terminal-truncated, hexahistidine-tagged human Gαi1), wild type (human, UniProt P63096 26-354)
T1 sequence (P63096 26-354): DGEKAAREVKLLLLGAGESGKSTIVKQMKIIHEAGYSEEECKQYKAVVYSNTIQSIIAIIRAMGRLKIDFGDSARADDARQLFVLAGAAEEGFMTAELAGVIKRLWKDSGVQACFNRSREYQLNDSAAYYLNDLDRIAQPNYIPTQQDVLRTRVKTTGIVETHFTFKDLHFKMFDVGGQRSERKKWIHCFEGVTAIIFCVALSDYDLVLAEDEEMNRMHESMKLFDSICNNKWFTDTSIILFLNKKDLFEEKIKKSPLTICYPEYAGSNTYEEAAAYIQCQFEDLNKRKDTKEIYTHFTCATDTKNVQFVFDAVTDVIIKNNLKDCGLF

[4] = molecular target: Gαi1 F223V, L249F, Q147L, E245L (human, UniProt P63096 26-354, F223V | L249F | Q147L | E245L)
Gαi1 F223V, L249F, Q147L, E245L, sequence (P63096 26-354 Q147L/F223V/E245L/L249F): as the sequence (P63096 26-354) above, with Q122L, F198V, E220L, L224F counted along it

[5] = molecular target: T1, Gαi1 (N-terminal-truncated, …); remark: listed apart in the source
[6] = molecular target: Gαi1 I78S, A111Q (human, UniProt P63096 26-354, I78S | A111Q)
Gαi1 I78S, A111Q, sequence (P63096 26-354 I78S/A111Q): as the sequence (P63096 26-354) above, with I53S, A86Q counted along it

[7] = molecular target: T2, Gαi1 F223V, L249F (human, UniProt P63096 26-354, F223V | L249F)
T2 sequence (P63096 26-354 F223V/L249F): as the sequence (P63096 26-354) above, with F198V, L224F counted along it

[8] = molecular target: T2, Gαi1 F223V, L249F; remark: listed apart in the source

Gαi1 K248E, S252L, sequence (P63096 26-354 K248E/S252L): as the sequence (P63096 26-354) above, with K223E, S227L counted along it
Gαi1 E245L, L249A, sequence (P63096 26-354 E245L/L249A): as the sequence (P63096 26-354) above, with E220L, L224A counted along it

Binder	Kd [1]	Kd [3]	further results
DIEGLVEKLNRVQSSGAHDQRGLLRKEDLVLPEFLQ (domain or fragment, UniProt O08773 496-531, looked up, also: 6-IAF fluorescein on the unique Cys (not in given chain)) [GoLoco motif of RGS14 (496-531, Tenascin fusion) L503K]	80 ± 10 nM	–	–
DIEGLVELANRVQSSGAHDQRGLLRKEDLVLPEWLQ (domain or fragment, UniProt O08773 496-531, looked up, also: 6-IAF fluorescein on the unique Cys (not in given chain)) [GoLoco motif of RGS14 (496-531, Tenascin fusion) L504A, F529W]	–	> 5000 nM	Kd [4]: 40 ± 100 nM; Kd [5]: ~5000 nM
DIEGLVELLNRVQSSGAHDQRGLTRKEDLVLPEFLQ (domain or fragment, UniProt O08773 496-531, looked up, also: 6-IAF fluorescein on the unique Cys (not in given chain)) [GoLoco motif of RGS14 (496-531, Tenascin fusion) L519T]	–	16000 ± 5000 nM	Kd [6]: > 20000 nM

The remaining binders from weak to strong by Kd [3], led by results:

Kd [1]	Kd [3]	Binder	further results
–	2400 ± 1000 nM	DIEGLVELANRVQSSGAHDQRGLLRKEDLVLPEFLQ (domain or fragment, UniProt O08773 496-531, looked up, also: 6-IAF fluorescein on the unique Cys (not in given chain)) [GoLoco motif of RGS14 (496-531, Tenascin fusion) L504A]	Kd [7]: > 5000 nM; Kd [8]: ~5000 nM
–	1040 ± 60 nM	DIEGLVELLNRMQSSGAHDQRGLLRKEDLVLPEFLQ (domain or fragment, UniProt O08773 496-531, looked up, also: 6-IAF fluorescein on the unique Cys (not in given chain)) [GoLoco motif of RGS14 (496-531, Tenascin fusion) V507M]	Kd [2]: 50 ± 10 nM
320 ± 60 nM	100 ± 20 nM	DIEGLVELLNRVQSSGAHDQRGLLRKEDLVLPEFLQ (domain or fragment, UniProt O08773 496-531, looked up, also: 6-IAF fluorescein on the unique Cys (not in given chain)) [GoLoco motif of RGS14 (residues 496-531) expressed as a fusion to Tenascin, wild type]	–
